For assay [1], the target named is MurD (A1S_0245), recombinant, purified (Acinetobacter baumannii). Description: enzyme inhibition curve (HPLC assay of MurD activity); 40 nM MurD; Zn-loaded MigC (1.0 mol equivalent ZnSO4) 0.025-75 µM final, with GTP; enzyme mixture pre-incubated 10 min at 37 °C; 200 µM UMA, 1 mM D-glutamate, 1 mM ATP, 0.1 mg/mL BSA; 25 mM HEPES, 150 mM KCl, 2 mM MgCl2, 2 mM TCEP, pH 7.4, 37 °C; Ki fitted with the maximal inhibition fixed from a global fit.

The target is the same in assay [2].
The target is the same in assay [3]. Description: enzyme inhibition curve (HPLC assay of MurD activity); as a3 but apo MigC (no Zn) with GTP.
The target is the same in assay [4]. Description: enzyme inhibition curve (HPLC assay of MurD activity); as a3 but apo MigC (no Zn) without GTP.

MurD (A1S_0245), recombinant, purified (Acinetobacter baumannii), sequence (A3M1C6 whole entry): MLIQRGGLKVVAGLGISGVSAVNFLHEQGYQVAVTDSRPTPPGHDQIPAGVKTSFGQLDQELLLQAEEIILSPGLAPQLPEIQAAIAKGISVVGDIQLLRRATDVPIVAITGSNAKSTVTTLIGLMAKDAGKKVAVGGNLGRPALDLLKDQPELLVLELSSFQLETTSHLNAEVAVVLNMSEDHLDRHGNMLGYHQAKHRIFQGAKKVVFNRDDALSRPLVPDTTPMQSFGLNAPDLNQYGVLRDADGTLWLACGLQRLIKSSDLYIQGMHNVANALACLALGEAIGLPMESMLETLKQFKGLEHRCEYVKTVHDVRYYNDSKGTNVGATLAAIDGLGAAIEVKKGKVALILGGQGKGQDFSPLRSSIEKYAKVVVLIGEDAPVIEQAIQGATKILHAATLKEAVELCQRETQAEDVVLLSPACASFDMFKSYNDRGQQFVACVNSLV

Regarding “E99A MigC, recombinant, purified (enzyme)”, the inhibition constant Ki in assay [1] came out at 21 µM.

Consider “MigC (A1S_0934), recombinant, purified (enzyme)”, for which, in assay [2], the maximal inhibition of MurD activity at saturating Zn-MigC (inhibition curves, 0.025-75 µM MigC, HPLC) was 75%. In addition, the results for the Ki in assay [3], in assay [4] and in assay [1] were 43 µM, 20 µM and 32 µM, respectively.

Values taken from article PMC12208494, “The zinc metalloprotein MigC impacts cell wall biogenesis through interactions with an essential Mur ligase in Acinetobacter baumannii” (PLOS Pathogens, 2025).
